Results published in patent EP4591887A1, “GPC3 ANTIBODY-DRUG CONJUGATE AND USE THEREOF” (priority 2022, dated 2024).

Legend:
[1] = system: PDX model LIV#219 of nude mice with human liver cancer; assay: Antitumor activity in LIV#219 liver cancer PDX model; assay type: in vivo, BALB/c nude mice; details: 3 mg/kg, Day 26
Procedure: The antitumor activity of GPC3-ADCs was tested in an LIV#219 liver cancer PDX model. The model has a higher expression level of GPC3 RNA, and a positive expression of GPC3 as confirmed by FACS analysis.
The process of the establishment of a PDX model of nude mice with human liver cancer was as follows: A tumor tissue with a volume size of about 15-30 mm^3 was transplanted subcutaneously under the back of the BALB/c nude mice. When the tumor volume reached 250-360 mm^3, the mice were divided into a total of 4 groups by a randomized block method, with 6 mice per group, ensuring uniformity in tumor volume and balance in body weight between these groups. The groups included a vehicle group, a 3 mg/kg GC33-L1-D1 administration group, a 3 mg/kg Hu 52H5D3B8-7-L1-D1 administration group, and a 3 mg/kg Hu 52H5D3B8-8-L1-D1 administration group.
Data analysis: During the experiment, the tumor volume was measured twice a week. The calculation formula for the tumor volume (TV) is: TV = l × w^2 / 2, in which l and w represent the measured length and width of the tumor, respectively. According to the measurement results, the relative tumor volume (RTV) was calculated by RTV = Vf / V0, in which V0 is the tumor volume measured at the time of grouping for administration (i.e., Day 0), and Vf is the tumor volume measured on the last day. […]

human GPC3 (Glypican-3) [2] = biological target: T1, human GPC3 (Glypican-3) (human, UniProt P51654 25-580); assay: cell-based or functional assay
human GPC3 (Glypican-3) [3] = biological target: T1, human GPC3 (Glypican-3); assay: cell-based or functional assay; remark: listed apart in the source

B1: GC33-L1-D1 (antibody, V domains shown)
VH: QVQLVQSGAEVKKPGASVKVSCKASGYTFTDYEMHWVRQAPGQGLEWMGALDPKTGDTAYSQKFKGRVTLTADKSTSTAYMELSSLTSEDTAVYYCTRFYSYTYWGQGTLVTVSS
VL: DVVMTQSPLSLPVTPGEPASISCRSSQSLVHSNGNTYLHWYLQKPGQSPQLLIYKVSNRFSGVPDRFSGSGSGTDFTLKISRVEAEDVGVYYCSQNTHVPPTFGQGTKLEIK
modifications: MC-vc-PAB-MMAE (L1-D1) on cysteine thiols of the antibody freed by TCEP reduction of disulfide bonds; positions not given
- relative tumor proliferation rate (T/C) (%) [1]: 54.90%
- tumor growth inhibition rate (TGI %) [1]: 45.10%
- Percentage reduction of GPC3 on cell surface (%), Huh7 cells, 2 h at 37°C against ice, FACS (human GPC3 (Glypican-3) [2]): 63.1%
- EC50 value of cytotoxicity, HepG2 cells (96 h, PrestoBlue) (human GPC3 (Glypican-3) [3]): 73.2 ng/mL
- EC50 value of cytotoxicity, Huh7 cells (96 h, PrestoBlue) (human GPC3 (Glypican-3) [3]): 78.6 ng/mL
